# Reference: publication PMC314469, “Protein Interaction Networks by Proteome Peptide Scanning” (PLoS Biology, 2004)
# T1: Boi2 SH3 (BOI2_YEAST), P39969
# T1 chain: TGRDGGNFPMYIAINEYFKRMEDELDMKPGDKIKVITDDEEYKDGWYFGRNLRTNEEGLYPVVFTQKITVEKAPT
# T2: Rvs167 SH3 (RV167_YEAST), P39743
# T2 chain: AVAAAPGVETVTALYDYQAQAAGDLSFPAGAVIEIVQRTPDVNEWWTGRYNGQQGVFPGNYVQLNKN
# T3: Boi1 SH3 (BOI1_YEAST), P38041
# T3 chain: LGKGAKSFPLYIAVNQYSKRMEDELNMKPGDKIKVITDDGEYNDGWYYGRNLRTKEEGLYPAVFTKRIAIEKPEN
# T4: Yfr024 SH3 (LSB3_YEAST), P43603
# T4 chain: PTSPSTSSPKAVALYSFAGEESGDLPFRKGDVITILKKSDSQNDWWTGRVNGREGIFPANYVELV
# T5: Yhr016c SH3 (YSC84_YEAST), P32793
# T5 chain: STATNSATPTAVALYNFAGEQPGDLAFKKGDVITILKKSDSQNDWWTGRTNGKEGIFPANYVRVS
# What was measured:
# Assay in all cases: SPOT array
# [1] = target: T1, Boi2 SH3 (BOI2_YEAST), P39969
# [2] = target: T2, Rvs167 SH3 (RV167_YEAST), P39743
# [3] = target: T3, Boi1 SH3 (BOI1_YEAST), P38041
# [4] = target: T4, Yfr024 SH3 (LSB3_YEAST), P43603
# [5] = target: T5, Yhr016c SH3 (YSC84_YEAST), P32793
Binder,"normalised SPOT signal, Boehringer light units (BLU); mean over the file's lines of this peptide [1]","normalised SPOT signal, Boehringer light units (BLU); mean over the file's lines of this peptide [2]","normalised SPOT signal, Boehringer light units (BLU); mean over the file's lines of this peptide [3]","normalised SPOT signal, Boehringer light units (BLU); mean over the file's lines of this peptide [4]","normalised SPOT signal, Boehringer light units (BLU); mean over the file's lines of this peptide [5]"
NNGPKIPQKNTIDS [YKR029C 581-594],27.3,26.5,44.6,424,74.1
NSPPTTPSKDESGP [YMR190C 45-58],29.9,40.1,43.4,101,293
NMVPLNPNRIIPDE [YDR499W 189-202],143,340,31.3,1110,504
NQAPLEPLKPTATG [YIR006C 229-242],14.5,37.7,115,25.1,208
NSNPIDPLRSDRSV [YNL144C 502-515],45.3,22.8,274,301,67.7
NSLPSSPKKQPARN [YCL063W 173-186],31.8,211,57.1,331,199
NSMPNVPVRLKLHT [YKL208W 152-165],2750,2480,5300,20400,11000
NNNPVPPQKINQPP [YDL203C 198-211],43.4,46.9,21.2,212,20.2
NLKPERPSKVSFEM [YEL062W 548-561],52.6,805,103,4070,1350
NNAPTLPKRKNPKI [YPR055W 477-490],62.5,19800,2740,40800,45600
NRKPAEPTKPNNLD [YML075C 1024-1037],96.2,91.3,51.4,292,234
NSPPVYPKRIRHFE [YDR061W 22-35],3110,3590,8630,23100,22100
NSRPQQPERRRFNS [YOR042W 296-309],2470,3880,7150,40900,14500
NKVPTNPKKFKKAP [YDR181C 326-339],70.3,20.2,126,178,210
NIQPDLPPRKIMIP [YBR239C 90-103],111,33000,1500,27200,56900

# The remaining lines, values ahead:
"normalised SPOT signal, Boehringer light units (BLU); mean over the file's lines of this peptide [1]","normalised SPOT signal, Boehringer light units (BLU); mean over the file's lines of this peptide [2]","normalised SPOT signal, Boehringer light units (BLU); mean over the file's lines of this peptide [3]","normalised SPOT signal, Boehringer light units (BLU); mean over the file's lines of this peptide [4]","normalised SPOT signal, Boehringer light units (BLU); mean over the file's lines of this peptide [5]",Binder
42.3,1190,180,14200,12200,NPPPVPPPRNVTAM [YNL176C 548-561]
72.2,128,109,417,770,NLKPFHPPKEKSMN [YPL159C 186-199]
65.1,69.2,42.6,282,442,NSSPMSPLKEKYVL [YOR299W 430-443]
760,915,13200,19500,5920,NIQPNIPLRSYRYL [YHL023C 782-795]
27.9,3.8,69.3,194,272,NNTPIVPEKFSNDL [YKR004C 249-262]
18.3,26.6,81.4,118,315,NLDPNPPVRGENLT [YDL046W 61-74]
99.5,188,63.6,1730,172,NKIPPKPRKVLQLL [YGL076C 93-106]
